39 variants from the Human Domainome abundance scans (Beltran et al. 2025) can be followed below.

B1: Serine/threonine-protein kinase A-Raf, residues 21 to 89; numbered along this chain, P10398 (parent)
chain: VKVYLPNKQRTVVTVRDGMSVYDSLDKALKVRGLNQDCCVVYRLIKGRKTVTAWDTAIAPLDGEELIVE

± gives the uncertainty stated by the source.

The data set covers variants of B1. Description: abundance fitness (aPCA) (normalised: wild type 0, dead -1); higher = more abundant; growth selection in yeast, the domain comes from the species named. To be noted: Homo sapiens.
Regarding VKVYLPNKQRTVVTVRDGMSVYDSLDKALKVRGLNQDHCVVYRLIKGRKTVTAWDTAIAPLDGEELIVE [C38H], the abundance fitness is -0.019 ± 0.11.
Consider VKVYLPNKQRTVVVVRDGMSVYDSLDKALKVRGLNQDCCVVYRLIKGRKTVTAWDTAIAPLDGEELIVE [T14V], for which the abundance fitness is -0.126 ± 0.063.
Regarding VKVYLPNKQRTVVTVRDGYSVYDSLDKALKVRGLNQDCCVVYRLIKGRKTVTAWDTAIAPLDGEELIVE [M19Y], the abundance fitness was -0.352 ± 0.18.
In the case of VKVYLPNKQRTVVTVRDGCSVYDSLDKALKVRGLNQDCCVVYRLIKGRKTVTAWDTAIAPLDGEELIVE [M19C] it was -0.091 ± 0.11; in that of VKVYFPNKQRTVVTVRDGMSVYDSLDKALKVRGLNQDCCVVYRLIKGRKTVTAWDTAIAPLDGEELIVE [L5F], 0.102 ± 0.097.
As for VKVYLPNKQRTVVTVRDGMSVYDSLDKALKVRGLQQDCCVVYRLIKGRKTVTAWDTAIAPLDGEELIVE [N35Q], the abundance fitness is -0.221 ± 0.069.
Turning to VKVYLPNKQRTVVTVRDGMSVYDSLDKALKVRGLPQDCCVVYRLIKGRKTVTAWDTAIAPLDGEELIVE [N35P], the abundance fitness is -0.754 ± 0.15.
As for VKVYLPNKQVTVVTVRDGMSVYDSLDKALKVRGLNQDCCVVYRLIKGRKTVTAWDTAIAPLDGEELIVE [R10V], the abundance fitness turned out to be 0.187 ± 0.057.
VKVYLPNKQRTVVTVRDGMSVYDSLDKALKVRGLNQDCCVVYRLIKGRKTVTAWDVAIAPLDGEELIVE [T56V]: the abundance fitness is -0.235 ± 0.034.
In the case of VKVYLPNKQRTVVTVRDGMSVYDSLDKALKVRGLNQDCCVVYRLIKGRKTVTAWDKAIAPLDGEELIVE [T56K], the abundance fitness was -0.153 ± 0.049.
For the variant VKVYLPNKQRTVVTVRDGMSVYDSLDKALKVRGLNHDCCVVYRLIKGRKTVTAWDTAIAPLDGEELIVE [Q36H], the abundance fitness is -0.203 ± 0.077.
Turning to VKVYLPNKQRTVVTVRDGMSVYDSLDKALKVRGLNQDCCVVYRLIQGRKTVTAWDTAIAPLDGEELIVE [K46Q], the abundance fitness was -0.009 ± 0.067.
Turning to VKVYLPNKQRTVVTVRDGMSVYDSLDKALKVRGLNQDCCVVYRLIEGRKTVTAWDTAIAPLDGEELIVE [K46E], the abundance fitness was found to be 0.102 ± 0.08.
For the variant VKVYLPNKQRTVVTVRDGMSVYDSLDKALKVRGLNQDCCVVYRLILGRKTVTAWDTAIAPLDGEELIVE [K46L], the abundance fitness is -0.437 ± 0.063.
In the case of VKVYLPNKQRTVVTVRDGMSHYDSLDKALKVRGLNQDCCVVYRLIKGRKTVTAWDTAIAPLDGEELIVE [V21H] it was -0.996 ± 0.3; in that of VKQYLPNKQRTVVTVRDGMSVYDSLDKALKVRGLNQDCCVVYRLIKGRKTVTAWDTAIAPLDGEELIVE [V3Q], -1.02 ± 0.23.
The figure for VKVYLPNEQRTVVTVRDGMSVYDSLDKALKVRGLNQDCCVVYRLIKGRKTVTAWDTAIAPLDGEELIVE [K8E] is 0 ± 0.043; for VKVYLPNKQRTVVTVRDGMSVYDSLDKALKVRGLNQDCCVVYRLIKGRKTVTAWPTAIAPLDGEELIVE [D55P] it is -0.852 ± 0.099; for VKVYLPVKQRTVVTVRDGMSVYDSLDKALKVRGLNQDCCVVYRLIKGRKTVTAWDTAIAPLDGEELIVE [N7V] it is -0.929 ± 0.073.
In the case of VKVYLPNKQRTVVTVRDGMSVYDSLDKALKVRGLNQDCCVVYRLLKGRKTVTAWDTAIAPLDGEELIVE [I45L] it was -0.11 ± 0.051; in that of VKVYLPNKQRTVVTVRDGMSVYDSLDKALKVRGLNQDCCVVYRLFKGRKTVTAWDTAIAPLDGEELIVE [I45F], -0.179 ± 0.074; in that of VKVYLPNKQRTVVTVRDGMSVYDSLDKALKVRGLNQDCCVVYRLNKGRKTVTAWDTAIAPLDGEELIVE [I45N], -0.435 ± 0.27.
For the variant VKVYLPNKQRTVVTHRDGMSVYDSLDKALKVRGLNQDCCVVYRLIKGRKTVTAWDTAIAPLDGEELIVE [V15H], the abundance fitness is -0.122 ± 0.096.
VKVYLPNKQRTVVTVRDGMSVYDSLDKALKVRGLNQDCCVVYRLIKGEKTVTAWDTAIAPLDGEELIVE [R48E]: the abundance fitness was determined as 0.025 ± 0.087.
Regarding VKVYLPNKQRTVVTVRDGMSVYDSLDKALKVRGLNQDCCVVYRLIKGRKTVTAWDTAIAPLDNEELIVE [G63N], the abundance fitness is -0.265 ± 0.31.
In the case of VKVYLPNKQRTVVTVRDGMSVYDSLDKALKVRGLNQDCCVVYRLIKGRKTVTAWDTAIAPLDAEELIVE [G63A] it was -0.142 ± 0.086; in that of VKVYLPNKQRTVVTVRDGMSVYDSLDKALKVRGLNQDCCVVYRLIKGRKTVTAWDTAIAPLDREELIVE [G63R], -0.799 ± 0.073; in that of VKVYLPNKQRTVVTVRDGMSVYDSLDKALKVRGLNQDCCVVYRLIKGRKTVIAWDTAIAPLDGEELIVE [T52I], 0.141 ± 0.17.
With VKVYLPNKQRTVVTVRSGMSVYDSLDKALKVRGLNQDCCVVYRLIKGRKTVTAWDTAIAPLDGEELIVE [D17S], the abundance fitness was -0.04 ± 0.058.
The figure for VKVYLPNKQRTVVTVRDGMSVYDSLDKALKVRGLNQDCCVVYRLIKGRKTVTNWDTAIAPLDGEELIVE [A53N] is -0.257 ± 0.13.
Consider VKVYLPNKQRTVVTVRDGMSVYDSLDKALKVRGLNQDCCVVYRLIKGRKTVTSWDTAIAPLDGEELIVE [A53S], for which the abundance fitness was -0.058 ± 0.056.
Consider VKVYLPNKQRTVVTVRDGMSVYDSLWKALKVRGLNQDCCVVYRLIKGRKTVTAWDTAIAPLDGEELIVE [D26W], for which the abundance fitness was -0.113 ± 0.061.
The figure for VKVYLPNKQRTVVTVRDGMSVYDSLPKALKVRGLNQDCCVVYRLIKGRKTVTAWDTAIAPLDGEELIVE [D26P] is -0.977 ± 0.22; for VKVYLPNKQRTVVTVRDGMSVYDSLDKALMVRGLNQDCCVVYRLIKGRKTVTAWDTAIAPLDGEELIVE [K30M] it is -0.288 ± 0.097; for VKVYLPNKQRTVVTVRDGMSVYDSLDKALIVRGLNQDCCVVYRLIKGRKTVTAWDTAIAPLDGEELIVE [K30I] it is -0.63 ± 0.47.
In the case of VKVYLPNKQRTVVTVRDGMSVYDSLDKALTVRGLNQDCCVVYRLIKGRKTVTAWDTAIAPLDGEELIVE [K30T] it was -0.152 ± 0.095.
For the variant VKVYLPNKQRTVVTVRDGMSVYDSLDKALKVRGLNQDCCVVYRLIKHRKTVTAWDTAIAPLDGEELIVE [G47H], the abundance fitness is -0.907 ± 0.21.
The figure for VKVYLPNKQRTVVTVRDGMSVYDSLDKALKVRGLNQDCCVVYRLIKGRKTVTAWDTAKAPLDGEELIVE [I58K] is -0.86 ± 0.21; for VKVYLPNKQRTVVTVRDGMSVYDSLDKALKVRGLNQDCCVVYRLIKGRKTVTAWDTAIAPSDGEELIVE [L61S] it is -0.156 ± 0.065.
